{"source": "paper PMC3372094", "target": "calmodulin-binding domain of the original SK2 channel, SK2-a (UniProt P70604)", "sequence (P70604 396-487)": "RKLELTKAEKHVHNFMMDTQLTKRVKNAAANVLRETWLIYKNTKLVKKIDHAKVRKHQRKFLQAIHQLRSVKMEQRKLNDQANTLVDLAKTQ", "assay": "ITC", "data": [{"substance": "calmodulin (rat) (from UniProt P0DP29 1-149) (natural protein; other documents disagree on this pair)", "values": [{"measurement": "dH of the first site (rising phase, two-site fit)", "result": -34.7, "unit": "kcal/mol"}]}]}
